# From the Immune Epitope Database (IEDB)
# Tests used:
# [1] = target: HLA-A*11:01; assay: IEDB peptide-MHC binding, purified MHC/competitive/fluorescence; ≥ and ≤ were set here for values at or beyond the usual limits of such assays
# [2] = target: HLA-B*15:01; assay: IEDB peptide-MHC binding, purified MHC/competitive/fluorescence; filed as Kd, often an IC50 or EC50 that approximates it; ≥ and ≤ were set here for values at or beyond the usual limits of such assays
# [3] = target: HLA-A*03:01; assay: as above; settings: source organism: Salmonella enterica subsp. enterica serovar Typhi
# [4] = target: HLA-B*58:01; assay: IEDB peptide-MHC binding, purified MHC/direct/fluorescence; filed as Kd, often an IC50 or EC50 that approximates it; ≥ and ≤ were set here for values at or beyond the usual limits of such assays
# [5] = target: HLA-B*15:17; assay: as above
# [6] = target: HLA-B*57:01; assay: as above
# [7] = target: HLA-B*27:03; assay: IEDB peptide-MHC binding, purified MHC/competitive/fluorescence; filed as Kd, often an IC50 or EC50 that approximates it; ≥ and ≤ were set here for values at or beyond the usual limits of such assays
# [8] = target: HLA-B*39:01; assay: as above
# [9] = target: HLA-B*51:01; assay: as above
# [10] = target: HLA-B*18:01; assay: as above
# [11] = target: HLA-B*46:01; assay: as above
# [12] = target: HLA-A*26:01; assay: as above
# [13] = target: HLA-B*57:01; assay: as above
# [14] = target: HLA-A*69:01; assay: as above
# [15] = target: HLA-A*29:02; assay: IEDB peptide-MHC binding, purified MHC/direct/fluorescence; filed as Kd, often an IC50 or EC50 that approximates it; ≥ and ≤ were set here for values at or beyond the usual limits of such assays
# [16] = target: HLA-A*02:01; assay: as above
# [17] = target: HLA-A*02:16; assay: as above
# [18] = target: HLA-A*02:12; assay: as above
# [19] = target: HLA-A*68:02; assay: as above
# [20] = target: HLA-A*03:01; assay: as above
# [21] = target: HLA-A*24:03; assay: as above
# [22] = target: HLA-A*02:19; assay: as above
# [23] = target: HLA-A*31:01; assay: IEDB peptide-MHC binding, purified MHC/competitive/fluorescence; filed as Kd, often an IC50 or EC50 that approximates it; ≥ and ≤ were set here for values at or beyond the usual limits of such assays
# [24] = target: HLA-A*11:01; assay: IEDB peptide-MHC binding, purified MHC/direct/fluorescence; filed as Kd, often an IC50 or EC50 that approximates it; ≥ and ≤ were set here for values at or beyond the usual limits of such assays
# [25] = target: HLA-A*02:01; assay: IEDB peptide-MHC binding, purified MHC/competitive/fluorescence; filed as Kd, often an IC50 or EC50 that approximates it; ≥ and ≤ were set here for values at or beyond the usual limits of such assays
# [26] = target: HLA-B*15:17; assay: as above
# [27] = target: HLA-B*40:01; assay: IEDB peptide-MHC binding, purified MHC/direct/fluorescence; filed as Kd, often an IC50 or EC50 that approximates it; ≥ and ≤ were set here for values at or beyond the usual limits of such assays; settings: source organism: Itapua hantavirus
# [28] = target: HLA-A*02:11; assay: as above
# [29] = target: HLA-A*02:03; assay: as above
# [30] = target: HLA-B*08:01; assay: as above; settings: source organism: Reston ebolavirus - Reston
# [31] = target: HLA-B*44:02; assay: as above; settings: source organism: Reston ebolavirus - Reston
# [32] = target: HLA-B*48:01; assay: as above; settings: source organism: Reston ebolavirus - Reston
# [33] = target: HLA-B*15:01; assay: as above; settings: source organism: Reston ebolavirus - Reston
# [34] = target: HLA-B*18:01; assay: as above; settings: source organism: Reston ebolavirus - Reston
# [35] = target: HLA-B*27:05; assay: as above; settings: source organism: Reston ebolavirus - Reston
# [36] = target: HLA-A*01:01; assay: as above; settings: source organism: Reston ebolavirus - Reston
# [37] = target: HLA-B*46:01; assay: as above; settings: source organism: Reston ebolavirus - Reston
# [38] = target: HLA-A*31:01; assay: as above; settings: source organism: Reston ebolavirus - Reston
# [39] = target: HLA-A*69:01; assay: as above; settings: source organism: Amur virus
# [40] = target: HLA-A*68:02; assay: IEDB peptide-MHC binding, purified MHC/competitive/fluorescence; filed as Kd, often an IC50 or EC50 that approximates it; ≥ and ≤ were set here for values at or beyond the usual limits of such assays; settings: source organism: Salmonella enterica subsp. enterica serovar Typhi
# [41] = target: HLA-A*02:01; assay: IEDB peptide-MHC binding, purified MHC/competitive/fluorescence; ≥ and ≤ were set here for values at or beyond the usual limits of such assays; settings: source organism: Zaire ebolavirus
# [42] = target: HLA-B*15:01; assay: as above; settings: source organism: Zaire ebolavirus
# [43] = target: HLA-A*24:02; assay: as above; settings: source organism: Zaire ebolavirus
# [44] = source organism: Rickettsia sibirica
# [45] = source organism: Salmonella enterica subsp. enterica serovar Typhimurium str. LT2
# [46] = source organism: West Nile virus
# [47] = source organism: Bacillus anthracis
# [48] = source organism: Four Corners hantavirus
# [49] = source organism: Reston ebolavirus - Reston (1989)
# [50] = source organism: Reston ebolavirus - Reston
# [51] = source organism: Entamoeba dispar SAW760
# [52] = source organism: Entamoeba histolytica HM-1:IMSS
sequence,measurement,setting,value
AAGIAWIPY,IC50,[1]; source organism: Sudan ebolavirus,29.6 µM
AMAAAGMMY,Kd,[2]; source organism: Salmonella enterica subsp. enterica serovar Typhi,0.332 µM
same,Kd,[3],0.698 µM
ASWMALGVY,Kd,[4]; [44],1.32 µM
same,Kd,[5]; [44],0.0239 µM
same,Kd,[6]; source organism: Rickettsia sibirica 246,≥ 20 µM
FTGEYLLRL,Kd,[7]; source organism: Homo sapiens,≥ 20 µM
same,Kd,[2]; source organism: Homo sapiens,≥ 20 µM
same,Kd,[8]; source organism: Homo sapiens,≥ 20 µM
same,Kd,[9]; source organism: Homo sapiens,≥ 20 µM
same,Kd,[10]; source organism: Homo sapiens,≥ 20 µM
same,Kd,[11]; source organism: Homo sapiens,≥ 20 µM
same,Kd,[12]; source organism: Homo sapiens,≥ 20 µM
same,Kd,[13]; source organism: Homo sapiens,≥ 20 µM
same,Kd,[14]; source organism: Homo sapiens,≥ 20 µM
same,Kd,[15]; [45],≥ 20 µM
same,Kd,[16]; source organism: Salmonella enterica subsp. enterica serovar Typhimurium,0.229 µM
same,Kd,[17]; [45],≥ 20 µM
same,Kd,[18]; [45],1.04 µM
same,Kd,[19]; [45],≥ 20 µM
same,Kd,[20]; [45],≥ 20 µM
same,Kd,[21]; [45],≥ 20 µM
same,Kd,[22]; [45],≥ 20 µM
GSRAIWFMW,Kd,[5]; [46],0.063 µM
same,Kd,[6]; [46],0.038 µM
GTLTKGVFK,Kd,[23]; source organism: Bacillus anthracis str. A0488,0.0154 µM
same,Kd,[24]; [47],0.012 µM
same,Kd,[20]; [47],0.0549 µM
KTWGKNLVF,Kd,[5]; source organism: Yellow fever virus 1899/81,0.0017 µM
PELGAFFAI,Kd,[7]; [48],≥ 20 µM
same,Kd,[25]; [48],≥ 20 µM
same,Kd,[2]; [48],≥ 20 µM
same,Kd,[8]; [48],≥ 20 µM
same,Kd,[9]; [48],≥ 20 µM
same,Kd,[10]; [48],≥ 20 µM
same,Kd,[11]; [48],≥ 20 µM
same,Kd,[12]; [48],≥ 20 µM
same,Kd,[26]; [48],≥ 20 µM
same,Kd,[13]; [48],≥ 20 µM
same,Kd,[14]; [48],≥ 20 µM
same,Kd,[27],0.107 µM
same,Kd,[15]; source organism: Choclo virus,≥ 20 µM
same,Kd,[17]; source organism: Choclo virus,≥ 20 µM
same,Kd,[28]; source organism: Choclo virus,≥ 20 µM
same,Kd,[18]; source organism: Choclo virus,≥ 20 µM
same,Kd,[19]; source organism: Choclo virus,≥ 20 µM
same,Kd,[20]; source organism: Choclo virus,≥ 20 µM
same,Kd,[21]; source organism: Choclo virus,≥ 20 µM
same,Kd,[22]; source organism: Choclo virus,≥ 20 µM
same,Kd,[29]; source organism: Choclo virus,≥ 20 µM
QLSLRMLSL,Kd,[7]; [49],≥ 20 µM
same,Kd,[25]; [49],≥ 20 µM
same,Kd,[8]; [49],≥ 20 µM
same,Kd,[12]; [49],≥ 20 µM
same,Kd,[14]; [49],≥ 20 µM
same,Kd,[30],0.859 µM
same,Kd,[15]; [50],≥ 20 µM
same,Kd,[31],≥ 20 µM
same,Kd,[4]; [50],≥ 20 µM
same,Kd,[32],≥ 20 µM
same,Kd,[33],≥ 20 µM
same,Kd,[34],≥ 20 µM
same,Kd,[24]; [50],≥ 20 µM
same,Kd,[35],≥ 20 µM
same,Kd,[36],≥ 20 µM
same,Kd,[20]; [50],≥ 20 µM
same,Kd,[37],≥ 20 µM
same,Kd,[38],≥ 20 µM
same,Kd,[6]; [50],≥ 20 µM
STYQFSLMQ,Kd,[7]; [51],≥ 20 µM
same,Kd,[25]; [51],≥ 20 µM
same,Kd,[8]; [51],≥ 20 µM
same,Kd,[9]; [51],≥ 20 µM
same,Kd,[10]; [51],≥ 20 µM
same,Kd,[11]; [51],≥ 20 µM
same,Kd,[12]; [51],≥ 20 µM
same,Kd,[26]; [51],≥ 20 µM
same,Kd,[13]; [51],≥ 20 µM
same,Kd,[14]; [51],≥ 20 µM
same,Kd,[28]; [52],≥ 20 µM
same,Kd,[18]; [52],≥ 20 µM
same,Kd,[19]; [52],≥ 20 µM
same,Kd,[24]; [52],≥ 20 µM
same,Kd,[20]; [52],≥ 20 µM
same,Kd,[22]; [52],≥ 20 µM
same,Kd,[29]; [52],≥ 20 µM
TLTRGQNTV,Kd,[16]; source organism: Amur virus,0.0396 µM
same,Kd,[28]; source organism: Amur virus,≥ 20 µM
same,Kd,[18]; source organism: Amur virus,0.058 µM
same,Kd,[39],≥ 20 µM
same,Kd,[22]; source organism: Amur virus,0.137 µM
VSAAGTTLR,Kd,[23]; source organism: Mycobacterium tuberculosis H37Rv,0.35 µM
same,Kd,[20]; source organism: Mycobacterium tuberculosis,≥ 20 µM
WVVDQNGRV,Kd,[40],0.0179 µM
YQGDYKLFL,IC50,[41],0.601 µM
same,IC50,[42],10.8 µM
same,IC50,[1]; source organism: Zaire ebolavirus,60 µM
same,IC50,[43],0.902 µM
